Assay results taken from the nanobody polyreactivity screen of Harvey et al. (2022).

Assay: yeast display, Sf9 membrane polyspecificity reagent, FACS + sequencing; frameworks hold sequencing errors
Procedure, shortened: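 Genes from sorted yeast were amplified by colony PCR, read by MiSeq 2 × 250 sequencing and filtered on CDR length. These cells carried a synthetic nanobody library in Saccharomyces cerevisiae BJ5465 and were sorted by FACS into low and high (top ~1%) gates on anti-HA and streptavidin fluorescence. Polyreactivity is labelled according to the gate of origin.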

Sequence | polyreactivity (PSR sort gate)
QVHLGESGGRLVQPGGSLRLSCAASGCTFCPYAMGWSRQAPGKARELVAAISNGGGPKYADSVKCRFTISRDNAKHTVYLQMNSLKPEDTAVYYCAKTLWTGRAWYDYWGQGTQVTVSS | high polyreactivity
QVHLHESGGGLVQAGGSLRLSCAASGTISYAGPMGWYRQAPGKEREFVAGIGVGSNTNYADSVKGRYTIIRDNAKNTLYLQKNSLKTEDTAVYYCAVAGYAPLGRPYWGQGTQVTVSS | low polyreactivity
QVHLQERGGGLVQAGGSLRLSCAASGSIFYWPWMGWYRQAPGREREFVATITTGSNTYYADSMKGHLTNSRDNAINTVYLQMISQKPEDTAVYFCAVVGDGEIEHRYWGQGTQVTVSS | high polyreactivity
QVHLQESGCGLVQAGGSLRLSCAPSGSIFVSVTMGWYRQAPGKERELVASIGRGSTTNHADSVKGRFTISRDNAKNIVYLLMNSLKPEDTAVYFCAALESYGKYHGYWGQGTKVTVSS | low polyreactivity
QVHLQESGGGLVKAGGSLRLSCAASGNISNHNDMGWYRQAPGKEREFVAGITAGGITNYADSVKGRFTISRDNAKNTVYLQMNSLKPEDTAVYYCAASPDYAKSYGYWGQGTQATVSS | low polyreactivity
QVHLQESGGGLVQAGGSLRLSCAASGTIFRFRNMGWHRQAPGKERELVAGINGGTTTYYADSVIGRFTISRDNAKNTVYLQMNSLKPDDTAVYNCAAGASRLTYYDYWGQGTQVTVSS | low polyreactivity
QVHLQESGGGLVQAGGSLRLSCAASGTISQEDWMGWYRQAPGKEREFVAAIGLGSNTNYADSLKGRFTISRDNAKNSVYLQKNSLKPEDTAVYYFAVSVWQYSDHVYRGQGTQVTVSS | low polyreactivity
QVHLQESGGGLVQAGGSLRLSCAASGTITVLYKMGWFRQAPGKEREFVASINYGTSTYYADSVKGRFTVSRDSAKNTVYLQMNSLKPEDTAVYYCAAAYRWQDVYRYWGQGTQVTVSS | low polyreactivity
QVHLQESGGGQVQAGGSLRLSCAASGSISYASGMGWYRQAPGTEREFVASIDPGAITNYADSVKGRFTISHDNAKNTVYLQMNSLKPEYTAVYYCAARVSTTDSHGYWGQGTQVTVSS | high polyreactivity
QVHLVASGGGLVQAGGSLRLSCAASGSIFRRYAKGSYRQAPGKERELGAGISSGGYTNYAASVKGPFTISRDNAKNNVYLQRYSLKPEDTAVYYCAANQYRDVRYRPVDYWGQGTQVTVSS | high polyreactivity
QVHLVDSGGGLFQAGGILRLSCAASGRTIATNAMGWYRQAPGKERELVAGISWRVGRTYYADSVKGRFTISRDNAKNSVYLQMFSLKPEDTAVYYCAANPVRSRYGYWGQGTQVTVSS | high polyreactivity
QVHLVDSGGGLVLAGGSLRLSCAASGRNFERYAMGWYRKAPGKERELVAAISSSATRTYYADSVKGRFTISRDNAKNTVYLQMNSLKPEDTAVYYCAAKGAARDGSSEYNYWGQGTQVTVSS | high polyreactivity
QVHLVDSGGGLVQAGGSLRLSCAASGIIFTGNAMGWYRQAPGKERELVAGITGSGGNTYYADSVKGRFTISSDNAKNTVYLQMNCLKPEDTAVYYCAARRHIFLLIIWSGRVDYWGQGTQVTVSS | low polyreactivity
QVHLVDSGGGLVQAGGSLRLSCAASGSTIRYYAMGWYRQAPGKEREMVAAITSSGTSTYYADSVKGRFTISRDNAKNTVYLQMNSLKPEDTAVYYCAAPPVYKWVSSRYDYWGQGTQVTVSS | low polyreactivity
QVHLVDSGGRLVQAGGSLRLSCSASGNNFPGYAMGLYRQAPGKEREFVATITSNDGTTYYADSVKGRFTISRDNAMNTFFLQMNSLKPEDTAVYYCASVVRQYGFDYLGQGTQVTVSS | low polyreactivity
QVHLVDTGGGLVQARGRLRLSCPASGYNFSYYAMASYRQAPGKERELVATIDWGGGSTYYADSVQGRFTISRDIAKNTVYLQLNSLKPEDTGVYYCAKDYYINNYGYRYVSWGKGTQVTVSS | low polyreactivity
QVHLVESAAGLVQAGGSLRLSCDPSGFTFYAYPMGWYSQAPGKEREFVAAISSRGGRTYYADSVKGRFTISRDNAKNTVYLQMNSLKPEDTAVYYCNVPYYSFRALSSYYWGQGTQVTVSS | high polyreactivity
QVHLVESAGCLVQAAGSLRLSCSASGFTFGYNTMGWFRQPPGKERELVAAISYGGGRTYYADSVKWRFTISRDNAKNTVYLQMNSLKPEDSAVYYCAAAPIPSLTYDYWGQGTQVTVSS | low polyreactivity
QVHLVESAGGLVHAGGSHRLSCAASGFIFYRNAMGCYRQEPGKERELVAAISYRGARTYYADSVKGRFTISRDYEKNTVYLQMNSLKPEDTAVYYCAAQGVSSPGVDSWGQGTQVTVSS | high polyreactivity
QVHLVESAGGLVQAGGSLSLSCHASGSTFVWNAMGWYRQAPGKEMELVATMTLSTGSTYYADSVKGRFTISRDNAKNTVYLQMNSLKPEDTAVYYCNTEIFVDIIYDYGLWGQGTQVTVSS | low polyreactivity
QVHLVESGAGLVQAGGSLRLSCASSGFTFKAYAMGWYRQAPGKERELVAAITKSGGRTFYADSVKGRFTISRDNAKNTVYLQMNSLKPEDTAVYYCAASYTVYYWGQGTKVTVSS | high polyreactivity

Sequence | polyreactivity (PSR sort gate)
QVHLVESGGALVQAGGSLRLSCAASGSTFWFYAMLWYRQAPGKERELVAAITRSAGSTYYADSVKGRFTISRDNAKYTVFLQMNSLKPEDTAVYYCAAQRESLYGGFDSWGQGTQVTVSS | low polyreactivity
QVHLVESGGALVQAGGSLRLSCAASVIVFKRYAMGWYRQAPGKEREFVATISYTGGRTYYADSVKGRFTISRDNAKNTVYFQMNSLKPEDTAGYYCATLYRSSKHQPLDYWGQGTQVTVSS | high polyreactivity
QVHLVESGGALVQAGGSLRLSCASSGRTFGWNVMGWYRQAPGKERELVAAISGSGGSTYYADSLKGRFTISRDNAKNTVYLQMNSLKPEDTAVYYCAALYGPGREYDYWGQGTQVTVSS | low polyreactivity
QVHLVESGGCLLQAGGSLRLSCAASGSIFIINAMGWYRQAPGKERELVAAINNGVNTYYADSVKVRFTISRDNAKNTVYLQKNSLKPEDTAVYYCAADPYFYYYGYDYWGQGTQVTVSS | low polyreactivity
QVHLVESGGCLVQAGGSLRLSCAASGRTFDFYAMGWYRQAPGKERELVATITSGTSTNYADSVKGRFTISRDNAKNTVYLQMYRLKPEDTAVYYCNAGGVYPRCTFLEQGYEMDYWGQGTQVTVSS | low polyreactivity
QVHLVESGGCLVQARGSLRLSCAASGRTIQLYAMGWYRHPHGKVMELVAAITWSSGRTYYADSVKGRFTISRDNANNTVYLQMNRLKQEDTAVYYCNAPRGGRNTVYYWGQGTQVTVSS | high polyreactivity
QVHLVESGGGFVQAGGSLRVSCAASGRSCGYNAMGWYRQAPGKERELVAAITSGGSTYYADSVKGRFTISRDNAKHTVYLQMNSLKPEDTAVYYCAARFSYWKTKRAYDWGQGTQVTVSS | high polyreactivity
QVHLVESGGGIVQAGGRLRLSCAASGLIFYHYAMGWYRQAPGKEREFVAAITVSGGSTYYADSVKGRFTITRDNAKNTVYLQMNSLKPEDSAVYYCNARSVVWWASGDYWGQGTQVTVSS | low polyreactivity
QVHLVESGGGIVQAGVSLRLSCAASGRIFYGYTMGWYRQAPGKERELVASIDYSTGRTYYADSVKGRFTISRDNAKYTVYLQMNSLKPEDTAVYYCNADPNYSFLRYDYWGQGTQVTVSS | high polyreactivity
QVHLVESGGGKVQAGGSLRLSCAASGGTFYQYAMGWYRQAPGKESELVAAITRSGGRTYYADSVKGRFTISRDNAKNTVYFQMNSLKPEDTAVYYCAAEDVGPPDFYYWGQGTQVNVSS | high polyreactivity
QVHLVESGGGLDQAGGSLRLRCAASGRIFRHYAMGWYRQAPGTERELVAAYRWSCGSTYYADSEKGRFTISRDNAKNTVYLQMNSLKPEDNAVYYCATRDAVGHRPSGPYQLYDYWGQGTQVTVSS | low polyreactivity
QVHLVESGGGLDQAGGSLRLSCAASGSIYGPYAMGWYRQAPGKERELVAAIRSGGSTNYADSVKGRFTITRDNAKNTVYLLMTSLKPEDTAVYYCAAEYWGYPYDYWGQGTQVTVSS | low polyreactivity
QVHLVESGGGLFQAGGSLRLSCAASGSTFTDYDMGWYRQAPGKDRELVASITSGGSTNYADSVKGRFTISRDNAKNTVYLQMNSLKPEDTAVYYGAAADADRKYDYWGQGTQVTVSS | low polyreactivity
QVHLVESGGGLFQAGGSLRLSFAATGLTFSPYARGWYRHGPGKERELVASITNGGRTYYADSVKGRFTISRDNAKITVYLQMNSLKPEDTAVYYCAAYPRGARRLDYWGQGTQVTVSS | high polyreactivity
QVHLVESGGGLFQEGGSLRLSCAPSGSNFATYTMGWYRQAPGKERELVAAIRRSGGSTYYADSVKGRFTLSRDNAKNTVYLLMNSLKPEDTEVYYCAAKHYYYSPYVRYDPPPGYYWGQGTQVTVSS | high polyreactivity
QVHLVESGGGLVHAGGSLRLSCAASGFTLAWNAMGWYRQAPGKETELVATISRYGSSTSYADSVKGRFTISRDNSKNTVYLQMNSLKPEDTAVYYCAADRYTFRMDYWGQGTQVTVSS | high polyreactivity
QVHLVESGGGLVKAGGSLRLSCAASGRTFPYNAMGWYRQAPGKERELVAAISSGGSTNYADSVKGRFTISRDNAKNTVYLQMNSLKPEDTAVYYCATKYQRRPYRYYYWGQGTQVTVSS | low polyreactivity
QVHLVESGGGLVLAGGSLRLSCAASGIIFTYAMGWYRHAPGNERELVAAIDWRGGRTYYADSLKGRFTISRDNAKNTFYLQMNSLKPEDTAVYYCAPRLPGGTYYWGQGTQVTESS | high polyreactivity
QVHLVESGGGLVLAGGSLRLSCAASGSTFIWNAMGWYRQAPGKERELVAAIRRGSSTNYADSVKGRFTISRDNAKNTVYLQMNSLYPEDTAVYYCAKKPVTTDVSSETFFLEMDYWGQGTQVTVSS | low polyreactivity
QVHLVESGGGLVQAAGSLRLSCAASGRTFPYNAKGWYRQAPGKERELVAAISSGGSTNYADSVKGRFTISRDNAKNTVYLQMNSLKPEDTAVYYCATKYQRRPYRYYYWGQGTQVTVSS | low polyreactivity
